Here are results for three molecules from patent publication US20240409638A1 (AVACTA LIFE SCIENCES, published 2024).

The target of assay [1] is T1, human serum albumin (HSA) (human, UniProt P02768 25-609).
T1 construct: The assays used bought HSA (Sigma #A37812 in the SPR work); also called HuSA
The experiment in a line: HSA binding ELISA: HSA coated, bound AFFIMER detected with biotinylated anti-cystatin A antibody and streptavidin-HRP. The protocol: (§1) Plates were washed and AFFIMER® polypeptides were detected using streptavidin-HRP for 30 min. After the last washing step, the TMB substrate was added for the development of the experiment and plates were read at 450 nm. The EC₅₀ was then calculated using the interpolated non-linear four-parameters standard curve.
For orientation: In an ELISA, binding on a coated surface is turned into a signal by an enzyme label.

Assay [2] concerns the target T2, human PD-L1-Fc (R&D Systems) (human, UniProt Q9NZQ7 19-239).
T2 construct: Bought reagent; also called huPD-L1-Fc; huPD-L1; not shown: Fc part of the bought fusion
The assay is described as follows: PD-L1/PD-1 competition ELISA (binding inhibition %): human PD-1-Fc coated, AFFIMER preincubated with huPD-L1-Fc at its EC80, bound PD-L1 detected; blocked ligand: human PD-1-Fc. The table column is headed 'EC50 (nM)'; the text calls the values IC50. The protocol: Plates were washed two times with washing buffer (PBS, Tween 20 0.1%) with a plate washer and saturated with Casein 5% (Sigma) in PBS for 90 minutes at room temperature (25±1° C.). […] Plates were washed 3 times as described previously. […] Plates were washed 3 times as described previously and Streptavidin-HRP was added, and the plates were incubated for 30 minutes at room temperature (25±1° C.). Plates were washed a last time and the substrate (TMB; Pierce Thermo-Scientific) was added to the plate. After 10 minutes, the reaction was stopped using an acidic solution and the plates were read at absorbance 450-630 nm. The IC₅₀ was then calculated using the interpolated non-linear four-parameters standard curve.

Assay [3] concerns the target T2, human PD-L1-Fc (R&D Systems). The assay is described as follows: huPD-L1-Fc binding ELISA.
The target is the same in assay [4]. The assay is described as follows: SPR (Biacore 8K): human PD-L1-Fc amine-coupled on a CM5 chip, AFFIMER as analyte, 1:1 Langmuir fit. In general terms: Surface plasmon resonance follows binding to a sensor surface in real time, without labels.
Assay [5] has the same target. The experiment in a line: human PD-L1-Fc binding ELISA: huPD-L1-Fc coated, anti-cystatin A detection.
Assay [6] addresses T3, PD-L1 on cells (NCI-H441 cells; aAPC PD-L1/CHO-K1 cells, Promega) (human, UniProt Q9NZQ7 19-290). The assay is described as follows: cell-based or functional assay.
The target of assay [7] is T1, human serum albumin (HSA). The assay is described as follows: SPR (Biacore): immobilized ligand HSA (Sigma # A3782), AFFIMER as analyte, pH 7.0 by the legend. As to the method:
(§2) For the HSA binding kinetic analysis, HSA (Sigma #A37812) was immobilized on a CM5 chip surface using amine coupling in 10 mM sodium acetate (pH 5.0) (Cytvia). […] The chip surface was regenerated with 3 mM NaOH for 20 seconds at a flow rate of 20 μl/min. The kinetic data was blank subtracted and fit to a 1:1 Langmuir binding model (BIAcore evaluation software; Cytiva).

The target in assay [8] is T4, murine serum albumin (MSA) (murine, UniProt P07724 25-608).
T4 construct: Bought reagent
The experiment in a line: SPR, Biacore, MSA amine-coupled on CM5; mammalian-produced format.

Assay [9] addresses T3, PD-L1 on cells (NCI-H441 cells; aAPC …). The experiment in a line: cell-based or functional assay. This is another data set of the same source.
For assay [10], the target named is T4, murine serum albumin (MSA). The assay is described as follows: SPR (Biacore): immobilized ligand MSA (Sigma # A3559), AFFIMER as analyte, pH 7.0 by the legend.
Assay [11] deals with T1, human serum albumin (HSA). The assay is described as follows: SPR, Biacore, HSA amine-coupled on CM5; mammalian-produced format. As to the method:
as §2

The target of assay [12] is T1, human serum albumin (HSA). The experiment in a line: HSA binding ELISA: HSA coated, anti-cystatin A detection.
The target in assay [13] is T2, human PD-L1-Fc (R&D Systems). The experiment in a line: SPR (Biacore 8K): human PD-L1-Fc amine-coupled on a CM5 chip, AFFIMER as analyte.
The target of assay [14] is T1, human serum albumin (HSA). The experiment in a line: SPR (Biacore 8K): HSA amine-coupled on a CM5 chip, AFFIMER as analyte, pH 7.4, 1:1 Langmuir fit. As to the method: as §2
Assay [15] deals with T1, human serum albumin (HSA). The experiment in a line: SPR (Biacore 8K): HSA amine-coupled on a CM5 chip, AFFIMER as analyte, pH 6.0, 1:1 Langmuir fit. The protocol:
as §2

The target in assay [16] is T2, human PD-L1-Fc (R&D Systems). The experiment in a line: human PD-L1-Fc binding ELISA: huPD-L1-Fc coated, anti-cystatin A detection, no HSA in the assay buffer. The protocol:
as §1

For assay [17] the target is unchanged. The experiment in a line: human PD-L1-Fc binding ELISA: huPD-L1-Fc coated, anti-cystatin A detection, with 10 µM HSA in the assay buffer. As to the method: as §1
Assay [18] concerns the target T3, PD-L1 on cells (NCI-H441 cells; aAPC …). The experiment in a line: flow cytometry on NCI-H441 cells endogenously expressing PD-L1, anti-cystatin A antibody and AF488 secondary antibody, % positive cells. (In general: Flow cytometry measures light scatter and fluorescence of single cells or particles in a stream.)
Assay [19] has the same target. The assay is described as follows: flow cytometry, % positive cells, NCI-H441 cells (endogenous PD-L1). The protocol:
(§3) Lung cancer cell line (NCI-H441 (ATCC), CHO-K1 recombinant cell line overexpressing PD-L1 aAPC/CHO-K1 (Promega J1252)) and a negative cell line (CHO-K1, ATCC) were used to assess AFFIMER® agent binding capacity to PD-L1 by flow cytometry.
(§4) Briefly, 50 000 cells were added to each well of a 96-well microplate. After this step and each subsequent step, cells were washed twice with PBS+2 mM EDTA using 350g centrifugation for 3 minutes at 4° C. All steps were performed at 4° C. using assay buffer comprising 5% FBS, 2 mM EDTA and 0.05% sodium azide in PBS unless otherwise stated. Independent AFFIMER® agent dilutions were prepared in duplicate and added to the plates. […] Fixation was performed for 10 minutes at 4° C. with Fixation Buffer (Bio-techne FC004). Cells were resuspended in 100 ul assay buffer prior the acquisition of the data. 5000 events were collected by Flow cytometry (Millipore Guava 12HT). The results were gated on live cells and singlets (SSC-H vs SSC-A). The percentage of cells expressing PD-L1 bound by the AFFIMER® agent (positive cells) was determined by using as negative control (background) where the wells were stained with the AF488 conjugated secondary antibody only without AFFIMER® agent. The average of the duplicate wells was used to calculate EC₅₀ using a four-parameter non-linear regression curve fit using Graphpad Prism software. […]

The target is the same in assay [20]. The experiment in a line: flow cytometry, % positive cells, aAPC PD-L1/CHO-K1 cells (overexpressing PD-L1). As to the method:
as §3, §4

Assay [21] concerns the target T2, human PD-L1-Fc (R&D Systems). The assay is described as follows: human PD-L1-Fc/HSA bridging ELISA: huPD-L1-Fc coated, AFFIMER titrated with 10 µM HSA, detection with HRP-conjugated anti-HSA antibody (the signal needs PD-L1 and HSA bound at once). The protocol: After saturation with 5% casein/PBS buffer, the plates were washed and a dilution of AFFIMER® polypeptides or controls was incubated with HSA at a final concentration of 10 μM for 90 minutes. Plates were then washed, and a […] polyclonal antibody, anti-HSA (HRP-conjugated) (Abcam), was added for 90 minutes. After a last washing step, TMB was added for the development of the experiment and the plates were read at 450 nm. The EC₅₀ was then calculated using the interpolated non-linear four-parameters standard curve (FIG. 10).

Values joined by “and” are separate entries in the source; they are usually repeats but may differ in a detail not shown here. Equal entries are not always repeated.

As usually defined, the IC50 is the concentration at which inhibition is half-maximal. Usually EC50 stands for the concentration that produces a half-maximal response. Read a high EC50 as lower potency in that assay. By Kd is commonly meant the constant that tells how readily two partners part at equilibrium. A word on the koff: it is a measure of how fast the partners let go of each other. The low end stands for a long-lived complex, the high end for a short-lived complex. Broadly, the kon is a measure of how fast the partners come together. Read a low kon as slow association. In general, EC50 (read off the curve) refers to the concentration needed to bring the measured effect to its halfway point.

T1 sequence (P02768 25-609): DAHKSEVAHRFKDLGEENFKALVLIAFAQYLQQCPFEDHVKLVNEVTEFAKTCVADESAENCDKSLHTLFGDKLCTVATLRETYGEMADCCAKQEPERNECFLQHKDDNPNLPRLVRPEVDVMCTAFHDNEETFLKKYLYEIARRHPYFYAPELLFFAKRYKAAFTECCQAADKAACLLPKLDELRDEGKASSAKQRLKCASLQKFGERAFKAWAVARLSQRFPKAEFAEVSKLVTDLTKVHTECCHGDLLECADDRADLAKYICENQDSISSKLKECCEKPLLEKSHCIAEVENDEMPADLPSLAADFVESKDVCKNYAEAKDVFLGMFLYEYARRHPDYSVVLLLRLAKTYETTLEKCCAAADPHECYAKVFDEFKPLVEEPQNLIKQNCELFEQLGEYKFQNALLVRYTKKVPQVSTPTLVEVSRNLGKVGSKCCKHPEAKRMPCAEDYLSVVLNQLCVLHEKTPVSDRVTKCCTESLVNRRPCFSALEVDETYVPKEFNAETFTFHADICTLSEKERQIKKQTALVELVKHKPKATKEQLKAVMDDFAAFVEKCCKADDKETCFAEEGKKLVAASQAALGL
T3 sequence (Q9NZQ7 19-290): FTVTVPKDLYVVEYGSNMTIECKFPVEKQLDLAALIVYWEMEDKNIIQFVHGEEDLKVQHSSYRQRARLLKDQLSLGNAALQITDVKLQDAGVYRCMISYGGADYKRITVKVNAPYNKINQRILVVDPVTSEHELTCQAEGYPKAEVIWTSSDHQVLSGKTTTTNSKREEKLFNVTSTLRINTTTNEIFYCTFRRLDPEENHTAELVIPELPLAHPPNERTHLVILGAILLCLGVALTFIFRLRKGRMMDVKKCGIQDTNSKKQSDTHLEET
T2 sequence (Q9NZQ7 19-239 limits assumed): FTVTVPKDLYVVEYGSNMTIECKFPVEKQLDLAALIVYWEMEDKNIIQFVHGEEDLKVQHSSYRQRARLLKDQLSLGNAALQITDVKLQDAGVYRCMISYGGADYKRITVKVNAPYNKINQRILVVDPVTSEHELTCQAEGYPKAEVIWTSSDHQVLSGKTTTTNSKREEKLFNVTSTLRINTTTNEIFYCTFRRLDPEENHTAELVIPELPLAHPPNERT

B1: Clone 80 (monomeric anti-PD-L1 AFFIMER® polypeptide) (designed binder)
chain: MIPGGLSEAKPATPEIQEIVDKVKPQLEEKTGETYGKLEAVQYKTQVVRRKHFPQWPGTNYYIKVRAGDNKYMHLKVFKSLDLQPREVFQEDLVLTGYQVDKNKDDELTGF
notes: Engineered Stefin A variant; also called anti-PD-L1 type I AFFIMER® polypeptide
Consider B1, for which, in [1], the binding result is given as “no binding”. The IC50 in assay [2] came out at 1.63 nM. Also, the EC50 came to 0.2 nM in assay [3] and 0.21 nM in [5]. The molecule also showed a Kd in assay [4] of 0.449 nM. The “half-maximal concentration of PD-1/PD-L1 blockade (% of inhibition, NFAT-luciferase reporter cells; IC50)” value in assay [6] is 27.9 nM.

B2: Clone 80 XT38 (mammalian-produced anti-PD-L1 AFFIMER® ILF dimer XT) (designed binder)
chain: MIPGGLSEAKPATPEIQEIVDKVKPQLEEKTGETYGKLEAVQYKTQVVRRKHFPQWPGTNYYIKVRAGDNKYMHLKVFKSLDLQPREVFQEDLVLTGYQVDKNKDDELTGFAEAAAKEAAAKEAAAKEAAAKEAAAKEAAAKMIPGGLSEAKPATPEIQEIVDKVKPQLEEKTGETYGKLEAVQYKTQVVRRKHFPQWPGTNYYIKVRAGDNKYMHLKVFKSLDLQPREVFQEDLVLTGYQVDKNKDDELTGFAEAAAKEAAAKEAAAKEAAAKEAAAKEAAAKMIPRGLSEAKPATPEIQEIVDKVKPQLEEKTNETYGKLEAVQYKTQVLANFFQRRWPGSTNYYIKVRAGDNKYMHLKVFNGPWKFRNTDRGADRVLTGYQVDKNKDDELTGF
notes: Same trimeric ILF format as Clone 80 XT35, expressed in HEK (Expi293F) cells
As to B2, the off-rate constant (koff) is 0.00641 s⁻¹ in [7], 0.0741 s⁻¹ in assay [10] and 8.41e-05 s⁻¹ in assay [13]. For the same molecule, the kon was 412000 M⁻¹ s⁻¹ in [7], 179000 M⁻¹ s⁻¹ in [10] and 974000 M⁻¹ s⁻¹ in [13]. Further, the Kd in assay [8] stood at 413 nM; in [11] it was 15.5 nM; in assay [13], 0.0864 nM. In addition, the “IC50 of PD-1/PD-L1 blockade (% of inhibition, Promega NFAT-luciferase reporter cells)” value in [9] was 57.9 nM. For the same molecule, the EC50 in assay [12] worked out at 2.78 nM; in [5], 0.02 nM.

B3: Clone 80 XT34 (anti-PD-L1 type III AFFIMER® XT in-line fusion monomer XT) (designed binder)
chain: MIPGGLSEAKPATPEIQEIVDKVKPQLEEKTGETYGKLEAVQYKTQVVRRKHFPQWPGTNYYIKVRAGDNKYMHLKVFKSLDLQPREVFQEDLVLTGYQVDKNKDDELTGFAEAAAKEAAAKEAAAKEAAAKEAAAKEAAAKMIPRGLSEAKPATPEIQEIVDKVKPQLEEKTNETYGKLEAVQYKTQVLANFFQRRWPGSTNYYIKVRAGDNKYMHLKVFNGPWKFRNTDRGADRVLTGYQVDKNKDDELTGFHHHHHH
notes: Made in E. coli; LC/MS found a +42-43 Da species, assigned as acetylated; also called XT34_1; XT34_2
For the molecule B3, the EC50 in assay [1] was 0.02 nM; in [16], 0.02 nM; in [17] it was 0.03 nM; in assay [19] it was 0.64 nM and 1.28 nM; in [20], 0.1 nM; in [21] it was 0.56 nM. Moreover, the IC50 in assay [2] was 2.3 nM. The Kd in assay [14] worked out at 5.01 nM; in assay [15], 3.36 nM; in assay [4], 0.224 nM. Also, the koff is 0.00364 s⁻¹ in assay [14] and 0.00271 s⁻¹ in assay [15]. The kon in assay [14] was 727000 M⁻¹ s⁻¹; in assay [15] it was 808000 M⁻¹ s⁻¹. In addition, the “EC50 (read off the curve)” value in assay [18] was about 1 nM. Besides, the “half-maximal concentration of PD-1/PD-L1 blockade (% of inhibition, NFAT-luciferase reporter cells; IC50)” value in assay [6] came to 105 nM.
